{
  "source": "patent US20170066816A1",
  "about": "(University of Texas, published 2017)",
  "binders": {"B1": {"name": "murine m11E6 antibody (antibody, V domains shown)", "VH": "EVKVVESGGGLVQPGGSLRLSCTTSGFTFTDYYVSWVRQPPGKALEWLGFIRNKVNGYTTEFSSSVKGRFTISRDNSQSILYLQMNTLRVEDSATYYCARVSYYGRGWYFDYWGQGTTLTVSS", "VL": "DIVMTQSTSSLSASLGDRVTISCRASQDIDNYLSWFQQKPDGTVKLLIYYTSRLHSGVPSRFSGSGSGTDYSLTISSLDQEDIATYFCQQGNTFPWTFGGGTKLEIK", "notes": "also called parental murine 11E6 antibody"}, "B2": {"name": "murine m1B7 antibody (antibody, V domains shown)", "VH": "QVQLQQPGSELVRPGASVKLSCKASGYKFTSYWMHWVKQRPGQGLEWIGNIFPGSGSTNYDEKFNSKATLTVDTSSNTAYMQLSSLTSEDSAVYYCTRWLSGAYFDYWGQGTTLTVSS", "VL": "QIVLTQSPALMSASPGEKVTMTCSASSSVSFMYWYQQKPRSSPKPWIYLTSNLPSGVPARFSGSGSGTSYSLTISSMEAEDAATYYCQQWSSHPPTFGSGTKLEIK", "notes": "also called parental murine 1B7 antibody"}, "B3": {"name": "chimeric 1B7 antibody (antibody, V domains shown)", "VH": "QVQLQQPGSELVRPGASVKLSCKASGYKFTSYWMHWVKQRPGQGLEWIGNIFPGSGSTNYDEKFNSKATLTVDTSSNTAYMQLSSLTSEDSAVYYCTRWLSGAYFDYWGQGTTLTVSS", "VL": "QIVLTQSPALMSASPGEKVTMTCSASSSVSFMYWYQQKPRSSPKPWIYLTSNLPSGVPARFSGSGSGTSYSLTISSMEAEDAATYYCQQWSSHPPTFGSGTKLEIK", "notes": "also called ch1B7"}},
  "data": [
    {"molecular_target": "T1, pertussis toxin protein (Bordetella pertussis, UniProt P04977 35-269; P04978 28-226; P04979 29-227; P0A3R5 43-152; P04981 35-133)", "T1 construct": "also called PTx; PT", "test": "BIAcore", "units": {"kon": "M⁻¹ s⁻¹"}, "values": [
      {"binder": "B1", "kon": 80000},
      {"binder": "B2", "kon": 170000},
      {"binder": "B3", "kon": 150000}
    ]}
  ]
}
